Assay results published in patent publication US20230201361.

Key:
[1] = target: eighteen amino acid peptide containing the amino acid sequence PLGIA, covalently labeled with the same fluorophore near each end (HES structure)
[2] = target: control peptide, an HES-bearing peptide of the same length, with the same labeling, that does not contain the conformation-dependent cleavage site

B1: MMP-19 (protein)
chain: YLLLGRWRKKHLTFRILNLPSTLPPHTARAALRQAFQDWSNVAPLTFQEVQAGAADIRLSFHGRQSSYCSNTFDGPGRVLAHADIPELGSVHFDEDEFWTEGTYRGVNLRIIAAHEVGHALGLGHSRYSQALMAPVYEGYRPHFKLHPDDVAGIQALYGKKSPVIRDEEEEETELPTVPPVPTEPSPMPDPCSSELDAMMLGPRGKTYAFKGDYVWTVSDSGPGPLFRVSALWEGLPGNLDAAVYSPRTQWIHFFKGDKVWRYINFKMSPGFPKKLNRVEPNLDAALYWPLNQKVFLFKGSGYWQWDELARTDFSSYPKPIKGLFTGVPNQPSAAMSWQDGRVYFFKGKVYWRLNQQLRVEKGYPRNISHNWMHCRPRTIDTTPSGGNTTPSGTGITLDTTLSATETTFEY
fluorescence intensity [1]: Cleavage of the peptide gives rise to an increase in fluorescence intensity | fluorescence intensity [2]: The fluorescence of the latter does not increase upon addition of the MMP
